The source of these data is patent US20090291083A1, “BARB4 TARGET, ANTIBODY DESIGNATED BARB4, BARB4 RELATED ANTIBODIES, AND METHODS OF MAKING AND USING SAME” (PATRYS LIMITED, priority 2008, published 2009).

Assay in all cases: MTT cell proliferation assay (Table 2)
Common to all, as to assay type: cell-based, human
For orientation: Formazan colour is commonly taken as a measure of viable cells.

The test system of one experiment is BxPC-3. To be noted: for IC50, BA4 (24 hr): MTT 24 hr post-treatment; for IC50, BA4 (48 hr): MTT 48 hr post-treatment. The method, then: (§1) BARB4 was also evaluated for inhibition of proliferation of other cancer cell lines, including BxPC-3, COLO 205, H460, MDA-MB-231 and MIAPaCa-2 cells, as well as HT-29, HCT-116, BxPC-3, PANC-1, A549, PC-3 and HCT116 cells. In brief, various human cancer cell lines obtained from the American Type Culture Collection (ATCC) were established using standard in vitro culture methods and ATCC recommended media in 175 cm2 BD tissue culture treated flasks. In particular, MDAMB-231 cultures were incubated in a humidified 37° C., 100% air incubator, and BxPC-3, COLO 205, H460 and MIAPaCa-2 cultures were incubated in a humidified 37° C., 5% CO2, 95% air incubator. Cultures were sub-cultivated regularly to maintain log phase growth. All cell lines were brought up from cryopreservation using the original recommended ATCC media type and supplements. Cell line specific seeding densities were based on historical data from MIR Preclinical Services for growth over a 72 hr period.
(§2) On the day of IC50 plate seeding, the adherent cells were removed from the flasks for each cell line using trypsin EDTA, 1× (Cell Gro #25-053-CI). Trypsin was deactivated using complete media and the cells were pooled (each line done separately). The pooled cells in complete media were counted using trypan blue exclusion with a Neubauer Bright-Line® hemacytometer. The percent viability for each cell line was as follows:
(§3) Based on live cell counts, each suspension was then diluted in complete media (containing required supplements) to achieve the desired seeding density for each cell line. Once seeded, the cells were allowed to attach to the plates overnight and then treated with BA4 or cisplatin 24 hr post-seeding.
(§4) BARB4 was serially diluted 1:2 (2× final conc. in dilution reservoir=1600 μg/ml) in media to achieve a final 800 μg/ml starting concentration in the top dosage wells of the treatment plate by diluting 1:2 when transferred from the reservoir to the treatment plate. Antibody was added to columns 1 through 10 of the treatment plate. Column 11 was for cells+media only control and column 12 was for a media only blank. Cisplatin (positive control) was manufactured by Sigma (# M4394, lot 087K1349) and supplied as a fine, dark yellow powder, in an amber vial, stored at room temperature and housed in a covered box to prevent exposure to light. Cisplatin was previously dissolved in 0.9% saline to make a clear, colorless 4 mM stock solution, aliquoted and frozen at −20° C. Frozen aliquots were quickly thawed by holding the tubes in hand, placed on wet ice and diluted (2× conc. dilution reservoir) to achieve a final 1 mM starting concentration in the top dosage wells of the treatment plate (diluted 1:2 when transferred from the dilution reservoir to the treatment plate). Serial dilutions of 1:4 were made from wells 1 through 10 of the dilution reservoir prior to transfer to the treatment plate.
(§5) The BARB4 stock solution (10.5 mg/ml) was prepared by dilution in complete media according to the table below for a final starting treatment concentration of 800 μg/ml. The 4 mM stock solution of cisplatin in 0.9% saline was diluted in complete media for a final starting treatment concentration of 1 mM.
(§6) Cells were exposed to BARB4 or cisplatin for a 24 hr period. The plates were incubated overnight at 37° C. At 24 hr and 48 hr post-treatment, the MTT assay was performed as described below.
(§7) The anti-proliferative activity of BARB4 and cisplatin was evaluated using the MTT cell proliferation assay (ATCC catalog #30-1010K). The assay is based on the reduction of yellow tetrazolium MTT (3-(4,5-dimethylthiazolyl-2)-2,5-diphenyltetrazolium bromide) by metabolically active cells forming purple formazan crystals. […]

The next experiment deals with COLO 205. As to conditions: EC50. The method, then:
as §1, §2, §3, §4, §5, §6, §7

The subject of another experiment is H460. To be noted: EC50. As to the method: as §1, §2, §3, §4, §5, §6, §7
Another experiment deals with MDA-MB-231. To be noted: EC50. The method, then: as §1, §2, §3, §4, §5, §6, §7
For a further experiment, the system named is MIAPaCa-2. To be noted: EC50. As to the method: as §1, §2, §3, §4, §5, §6, §7
Where [1] appears, read: BxPC-3, b280: really EC50 of total observed effect.

B1: BARB4: human IgG antibody produced by hybridoma DSMZ Deposit No. DSM ACC2876; heavy chain SEQ ID NOs:1, 3, 5, 7, light chain SEQ ID NO:9 (antibody, V domains shown)
VH: QVQLVESGGGVVQPGRSLRLSCAASGFRFTTHGMHWVRQAPGKGLEWVAVISYNGRNKYYADYVNGRFTISRDDSRDTVFLQMNSLRPEDTAMYYCAKVRGDGYGDYGYFDYWGHGTLVSVSS
VL: QSALTQPRSVSGSPGQSVTISCTGTYNYVSWYQQHPGKAPKLMIFDVSRRSSGVPDRFSGSKSGNTASLTISGLQAEDEADYYCCSYGGTYLYVFGTGTTVTVLGQ
Take B1: the “IC50, BA4 (24 hr)” value was over 800 µg/mL in the experiment on BxPC-3 (setting [1]); over 800 µg/mL in the experiment on BxPC-3 (BxPC-3 repeat, EC50); 66.8 µg/mL with COLO 205 (MTT 24 hr post-treatment); 413 µg/mL with H460 (MTT 24 hr post-treatment); 154 µg/mL with MDA-MB-231 (MTT 24 hr post-treatment); 34.9 µg/mL with MIAPaCa-2 (MTT 24 hr post-treatment). In addition, the “IC50, BA4 (48 hr)” value in the experiment on BxPC-3 (setting [1]) is over 800 µg/mL; in the experiment on BxPC-3 (BxPC-3 repeat, EC50), over 800 µg/mL; in the experiment on COLO 205 (MTT 48 hr post-treatment), 2.78 µg/mL; in the experiment on H460 (MTT 48 hr post-treatment) it was over 800 µg/mL; with MDA-MB-231 (MTT 48 hr post-treatment), 193 µg/mL; with MIAPaCa-2 (MTT 48 hr post-treatment), 21.1 µg/mL.
